The values that follow come from paper PMC7736784.

For test [1], the target named is Sso7d-NanoLuc large fragment fusion.
Test [2] has the same target. This is another data set of the same source.

Like-named read-outs stand apart in the source and are kept apart here.

Broadly, the Kd is the equilibrium constant for the complex coming apart. Higher therefore signals weaker binding. In test [1], “NS2-Stoffel fusion (NanoLuc small fragment NS2)” gave an equilibrium dissociation constant (Kd) of 190 µM.
With NS3, the Kd in test [2] came out at 180 nM.
